One molecule from patent US20220372084A1 (MJCELL BIO, published 2022) can be followed below.

The test concerns the target PA63 ligand (truncated 63 kDa portion of anthrax protective antigen), reagent conjugated with FITC (Bacillus anthracis, UniProt P13423 197-764). The test can be described thus: flow cytometry, FITC-conjugated PA63 on cell lines expressing ANTXR1 and ANTXR2.

B1: ANTXR1 (anthrax toxin receptor 1) (receptor)
chain: not shown
notes: whole, on cells
B1: the binding result is reported as “binds”.
